From PMC7560200 (The EMBO Journal, 2020) come the findings set out here.

The target of this assay is GST-CENP-C (1-727) (human, UniProt Q03188 1-727). The assay can be described thus: pull-down.
Sequence of GST-CENP-C (1-727) (Q03188 1-727): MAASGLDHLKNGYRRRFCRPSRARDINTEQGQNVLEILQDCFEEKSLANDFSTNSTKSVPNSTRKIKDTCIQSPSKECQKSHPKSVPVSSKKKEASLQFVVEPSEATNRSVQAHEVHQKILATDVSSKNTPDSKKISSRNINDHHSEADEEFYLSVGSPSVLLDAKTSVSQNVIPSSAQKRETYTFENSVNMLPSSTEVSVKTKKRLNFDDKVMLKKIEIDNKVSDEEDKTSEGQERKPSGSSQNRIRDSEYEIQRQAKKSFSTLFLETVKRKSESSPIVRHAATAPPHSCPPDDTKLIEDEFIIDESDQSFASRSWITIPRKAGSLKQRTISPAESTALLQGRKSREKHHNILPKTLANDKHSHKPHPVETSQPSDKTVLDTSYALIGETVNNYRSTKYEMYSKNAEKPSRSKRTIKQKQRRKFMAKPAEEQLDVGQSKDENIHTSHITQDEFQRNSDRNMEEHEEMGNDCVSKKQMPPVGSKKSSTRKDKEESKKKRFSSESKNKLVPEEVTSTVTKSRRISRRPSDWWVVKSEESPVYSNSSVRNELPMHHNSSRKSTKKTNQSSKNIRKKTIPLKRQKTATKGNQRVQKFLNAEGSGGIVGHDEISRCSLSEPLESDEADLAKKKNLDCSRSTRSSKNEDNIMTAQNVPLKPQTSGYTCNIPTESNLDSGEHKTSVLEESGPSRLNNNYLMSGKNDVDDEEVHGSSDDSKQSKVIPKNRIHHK

B1: His-CENP-B (161–599) (domain or fragment, human, UniProt P07199 161-599, looked up)
chain: PSEGSGGSTTGWRAREEQPPSVAEGYASQDVFSATETSLWYDFLPDQAAGLCGGDGRPRQATQRLSVLLCANADGSEKLPPLVAGKSAKPRAGQAGLPCDYTANSKGGVTTQALAKYLKALDTRMAAESRRVLLLAGRLAAQSLDTSGLRHVQLAFFPPGTVHPLERGVVQQVKGHYRQAMLLKAMAALEGQDPSGLQLGLTEALHFVAAAWQAVEPSDIAACFREAGFGGGPNATITTSLKSEGEEEEEEEEEEEEEEGEGEEEEEEGEEEEEEGGEGEELGEEEEVEEEGDVDSDEEEEEDEESSSEGLEAEDWAQGVVEAGGSFGAYGAQEEAQCPTLHFLEGGEDSDSDSEEEDDEEEDDEDEDDDDDEEDGDEVPVPSFGEAMAYFAMVKRYLTSFPIDDRVQSHILHLEHDLVHVTRKNHARQAGVRGLGHQS
Regarding B1, the binding result was “binds”.
